The source of these data is patent publication US20230242657A1.

In general, IC50 refers to the point on the concentration scale where inhibition reaches its midpoint.

Assay [1] addresses human OX40 on the cell surface (activated human T cells; Jurkat-OX40-NF-kB-Luc cells overexpressing human OX40) (human) (UniProt P43489). Kind of assay: cell-based or functional assay.
In assay [2] the target is recombinant OX40-Fc protein (R & D, Cat 3388-OX) (human) (UniProt P43489). Kind of assay: blocking ELISA: plate-coated OX40-Fc, serially diluted antibody, then OX40L at 50 ng/ml, bound OX40L detected. (ELISA stands for enzyme-linked immunosorbent assay.)
Chain of recombinant OX40-Fc protein (R & D, Cat 3388-OX) (human) (P43489 29-214): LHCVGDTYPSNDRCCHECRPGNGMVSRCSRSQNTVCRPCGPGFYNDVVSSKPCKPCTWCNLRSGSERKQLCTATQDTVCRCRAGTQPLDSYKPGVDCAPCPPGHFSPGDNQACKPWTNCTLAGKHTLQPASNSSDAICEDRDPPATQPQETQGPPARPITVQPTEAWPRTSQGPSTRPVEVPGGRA

Chain of human OX40 on the cell surface (activated human T cells; Jurkat-OX40-NF-kB-Luc cells overexpressing human OX40) (human) (P43489 29-277): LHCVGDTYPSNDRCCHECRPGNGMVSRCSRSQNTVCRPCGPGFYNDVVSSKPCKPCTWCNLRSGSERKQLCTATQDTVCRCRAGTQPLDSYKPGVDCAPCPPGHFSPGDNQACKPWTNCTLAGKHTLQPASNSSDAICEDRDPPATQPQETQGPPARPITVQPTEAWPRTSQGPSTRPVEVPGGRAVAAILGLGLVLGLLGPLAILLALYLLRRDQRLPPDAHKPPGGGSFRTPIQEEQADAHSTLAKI

B1: GBR830 (reference OX40 antagonist antibody) (antibody, INN chains, looked up, V domains shown)
VH: QVTLKESGPALVKPTQTLTLTCSFSGFSLSTSGMGVGWIRQPPGKALEWIAHIWWDDDKYYNTALKTRLTISKDTSKNQVVLTMTNMDPVDTATYYCARIDWDGFAYWGQGTLVTVSS
VL: EIVLTQSPATLSLSPGERATLSCRASSSVSYMHWYQQKPGQAPRPWIYATSNRATGIPARFSGSGSGTDYTLTISSLEPEDFAVYYCQQWSSNPWTFGQGTKVEIK
B1: the IC50 of blocking the OX40L-mediated T cell activation (IFNy secretion) in assay [1] is 1.1 nM. Further, in assay [2], the IC50 turned out to be 0.3 nM and the maximum inhibition rate was 50%.
